This data set concerns the target GST-Abd-A DBD (Drosophila melanogaster, UniProt P29555-2 136-209). Description: EMSA; 50 mM HEPES pH 7.9, 100 mM KCl, 1 mM DTT, 12.5 mM MgCl2, 0.05 mM EDTA, 17% glycerol, 400 ng/ul poly(dI-dC), 20 fmol probe, 0-3000 ng protein, 30 min on ice. As to conditions: protein: recombinant; tags: N-terminal GST (pGEX4T1); label: 3' biotin on each strand; blunt.

GST-Abd-A DBD, sequence (P29555 396-469): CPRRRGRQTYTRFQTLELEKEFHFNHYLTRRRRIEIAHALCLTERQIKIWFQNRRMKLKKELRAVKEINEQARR

B1: Motif 5 (t_MSE2 site S5, Probe 6) (dsDNA)
DNA 1: TTTTTATTACTTCAACTATTCAAATTT
DNA 2: AAATTTGAATAGTTGAAGTAATAAAAA
Regarding B1, the binding result is “binds”.

B2: Motif 3 (t_MSE2 site S3, Probe 4) (dsDNA)
DNA 1: GAGAATTCAAGATCATAATATGTATACTAA
DNA 2: TTAGTATACATATTATGATCTTGAATTCTC
Take B2: the binding result is “binds”.

B3: Motif 4 (t_MSE2 site S4, Probe 5) (dsDNA)
DNA 1: ATGTATACTAATTAGACAGTCTCTTTTTTT
DNA 2: AAAAAAAGAGACTGTCTAATTAGTATACAT
As to B3, the binding result is “binds”.

(Values after publication PMC4383587, “The Evolutionary Origination and Diversification of a Dimorphic Gene Regulatory Network through Parallel Innovations in cis and trans”.)
